Experimental data published in patent US9193963B2, “Mutant endoglucanase” (Toray Industries, Inc., priority 2011, dated 2015).

Columns and labels:
[1] = Saccharification of lignocellulose 2 with Celluclast and endoglucanase; type: biochemical, Rice straw; conditions: 5 wt % Lignocellulose 2, pH 5.2, 50° C., 24 hours; 1.0 mg/mL cellulase + 0.1 mg/mL endoglucanase
How it was run: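 Dilute-sulfuric-acid-pretreated rice straw (10 wt% solids, pH ~5) suspended at 5 wt% in 50 mM acetate buffer pH 5.2 was digested 24 h at 50 °C with 1.0 mg/mL Trichoderma reesei Celluclast plus 0.1 mg/mL mutant or wild-type endoglucanase; glucose released was measured.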

[2] = Saccharification of lignocellulose 3 with Celluclast and endoglucanase; type: biochemical, Rice straw; conditions: 5 wt % Lignocellulose 3, pH 5.2, 50° C., 24 hours; 1.0 mg/mL cellulase + 0.1 mg/mL endoglucanase
How it was run: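 Hydrothermally pretreated rice straw (180° C., 20 min) at 5 wt % in 50 mM acetate buffer pH 5.2 digested at 50° C. for 24 h with Celluclast 1.0 mg/mL plus mutant or wild-type endoglucanase 0.1 mg/mL. Released glucose measured over time.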

[3] = Inhibition experiment with ferulic acid: degradation of phosphoric acid swollen cellulose; type: biochemical; conditions: enzyme 0.5 μM, 1 hour, 50° C., parent at 0 mM = 100%
Method: This substance was diluted using buffer and water to obtain a 2 wt % mixture so that the final concentration of sodium acetate was 50 mM (pH 5.2). This was designated as phosphoric acid swollen cellulose and used for the following examples.
The activity of the wild-type and the mutant endoglucanases to degrade phosphoric acid swollen cellulose was measured in the presence of ferulic acid. 1% phosphoric acid swollen cellulose/50 mM acetate buffer (pH 5.2) was used as a substrate. Ferulic acid (Sigma Aldrich) was added at final concentrations of 0, 5, 10, and 15 mM. The enzymes prepared in Reference Example 1 and Example 2 were each added at a final concentration of 0.5 μM, followed by 1 hour of enzymatic reaction at 50° C.

[4] = Saccharification of lignocellulose 1 with Celluclast and endoglucanase; type: biochemical, Rice straw; conditions: 5 wt % Lignocellulose 1, pH 5.2, 50° C., 24 hours; 1.0 mg/mL cellulase + 0.1 mg/mL endoglucanase
How it was run: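 Rice straw pretreated with liquid ammonia (15 min room temperature, then 1 h at 150° C), suspended at 5 wt % in 50 mM acetate pH5.2. Hydrolysed at 50° C for 24 h with 1.0 mg/mL Trichoderma reesei cellulase plus 0.1 mg/mL mutant or wild-type endoglucanase; glucose measured.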

[5] = Inhibition experiment with vanillin: degradation of phosphoric acid swollen cellulose; type: biochemical; conditions: enzyme 0.5 μM, 1 hour, 50° C., parent at 0 mM = 100%
[6] = Saccharification of lignocellulose 3 with Trichoderma reesei culture solution and endoglucanase; type: biochemical, Rice straw; conditions: Lignocellulose 3, 24 hours; cellulase 1.0 mg/mL + endoglucanase 0.1 mg/mL + β-glucosidase (Novozyme 188) 0.01 mg/mL
How it was run: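 Hydrothermally treated rice straw (180 °C, 20 min, 10 MPa; solid fraction) suspended at 5 wt % in 50 mM acetate buffer pH 5.2, hydrolysed 24 h at 50 °C. Enzymes: T. reesei culture-solution cellulase 1.0 mg/mL, mutant or wild-type endoglucanase 0.1 mg/mL, β-glucosidase 0.01 mg/mL; glucose generated measured.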

[7] = Activity to degrade phosphoric acid swollen cellulose; type: biochemical; conditions: 1% phosphoric acid swollen cellulose, pH 5.2, enzyme 0.5 μM, 1 hour, 50° C.; glucose generated by each parent endoglucanase = 100%
How it was run: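 Enzyme added to phosphoric acid swollen cellulose in 50 mM acetate buffer, pH 5.2; 1 h reaction at 30–85 °C, stopped by pH change if needed. Glucose released measured by glucose kit; activity expressed relative to parent endoglucanase set at 100%.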

[8] = Saccharification of lignocellulose 2 with Trichoderma reesei culture solution and endoglucanase; type: biochemical, Rice straw; conditions: Lignocellulose 2, 24 hours; cellulase 1.0 mg/mL + endoglucanase 0.1 mg/mL + β-glucosidase (Novozyme 188) 0.01 mg/mL
How it was run: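 Dilute-sulfuric-acid-autoclaved rice straw (pH ~5) suspended at 5 wt % in 50 mM acetate pH 5.2, hydrolysed 24 h at 50 °C. Enzymes: T. reesei culture solution 1.0 mg/mL, mutant or wild-type endoglucanase 0.1 mg/mL, β-glucosidase 0.01 mg/mL. Glucose released was measured.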

[9] = Saccharification of lignocellulose 1 with Trichoderma reesei culture solution and endoglucanase; type: biochemical, Rice straw; conditions: Lignocellulose 1, 24 hours; cellulase 1.0 mg/mL + endoglucanase 0.1 mg/mL + β-glucosidase (Novozyme 188) 0.01 mg/mL
How it was run: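 Substrate was liquid-ammonia-treated rice straw (1 h, 150 °C), suspended at 5 wt % in 50 mM acetate buffer pH 5.2 and hydrolysed for 24 h at 50 °C. Enzymes: T. reesei culture solution 1.0 mg/mL, mutant or wild-type endoglucanase 0.1 mg/mL, β-glucosidase 0.01 mg/mL. Glucose released was measured.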

B1: EGIa2 Mutant: mutant EgIa2, SEQ ID NO: 14; residue corresponding to 273rd tryptophan substituted with alanine (protein)
chain: MYREKSCGSTIMDVYYRARGTEIYIERKGVEKPLYIFGINWAGFEWRGRVVGGLHVRNWVEILQQIKSLGFNAIRIPFCAESVKPGVFPAPRTINYALNRDLIGLDSISIMEKIIAKAAELELYILLCFHNISCLIMEPLWYTPLFSEQQFIDTWIRVAKRFSRYWNVIGAELYNNPHGRLPPSYYYESGECATWGMGNPKTDWNLAAERIGRAVLEVAPHWLIIVKGTQLTNPRSDNVPLYPEATYAGENLRAVRDYPVNLPRDKLVYGVDIYGPDVYYMPYFNDPNIFPDKLYLIWDQNWGYVKKELGYPLIIAEFGGLYGRGDPRDVIWHQKLVEYMISNNICHWFYNALNPDNPSTAGLLENDWRTVREDKMALLRRAMDYCRERYGNI
modifications: Ignisphaera aggregans EGla2 W248A
notes: residue corresponding to 273rd tryptophan substituted with alanine
In the case of B1, the “Concentration of glucose generated, Celluclast + Mutant” value (shortened to “Concentration … Celluclast + Mutant”) [1] is reported as 16 g/L, the “Concentration … Celluclast + Mutant” value [2] is reported as 14 g/L and the “Relative activity to degrade phosphoric acid swollen cellulose” value ([3]; ferulic acid 0 mM) is reported as 100%. The “Relative activity to degrade phosphoric acid swollen cellulose” value ([3]; ferulic acid 5 mM) was 95%, the “Relative activity to degrade phosphoric acid swollen cellulose” value ([3]; ferulic acid 10 mM) was 90% and the “Relative activity to degrade phosphoric acid swollen cellulose” value ([3]; ferulic acid 15 mM) was 90%. The “Concentration … Celluclast + Mutant” value [4] was 16 g/L, the “Relative activity to degrade phosphoric acid swollen cellulose” value ([5]; vanillin 0 mM) was 100% and the “Relative activity to degrade phosphoric acid swollen cellulose” value ([5]; vanillin 5 mM) was 95%. For the same molecule, the “Relative activity to degrade phosphoric acid swollen cellulose” value ([5]; vanillin 10 mM) was 90%, the “Relative activity to degrade phosphoric acid swollen cellulose” value ([5]; vanillin 15 mM) was 90% and the “Concentration of glucose generated, Culture solution + Mutant” value (“Concentration … Culture solution + Mutant” for short) [6] was 11 g/L. For the same molecule, the Relative activity [7] was 100%, the “Concentration … Culture solution + Mutant” value [8] was 13 g/L and the “Concentration … Culture solution + Mutant” value [9] was 13 g/L.
